From US20230227559A1 (INSTITUT PASTEUR, published 2023)

T1: hFcgRIIA H131 (human, UniProt P12318)
T1 construct: on the cell surface of CHO transfectants, FLAG tagged; Named only on the sheet; one member of the group m10; also called hFcγRIIA H131; CD32A H131
T1 sequence (receptor chain, looked up): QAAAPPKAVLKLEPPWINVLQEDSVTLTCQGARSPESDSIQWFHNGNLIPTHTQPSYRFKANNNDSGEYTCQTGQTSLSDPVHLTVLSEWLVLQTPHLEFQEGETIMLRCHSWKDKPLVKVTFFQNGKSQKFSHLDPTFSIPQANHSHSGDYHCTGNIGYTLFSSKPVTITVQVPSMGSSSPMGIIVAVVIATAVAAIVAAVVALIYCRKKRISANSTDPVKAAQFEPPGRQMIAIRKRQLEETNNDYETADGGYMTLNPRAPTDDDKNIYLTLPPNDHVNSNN

T2: hFcgRIIA R131 (human, UniProt P12318)
T2 construct: on the cell surface of CHO transfectants, FLAG tagged; Named only on the sheet; one member of the group m10; also called hFcγRIIA R131; CD32A R131
T2 sequence (receptor chain, looked up): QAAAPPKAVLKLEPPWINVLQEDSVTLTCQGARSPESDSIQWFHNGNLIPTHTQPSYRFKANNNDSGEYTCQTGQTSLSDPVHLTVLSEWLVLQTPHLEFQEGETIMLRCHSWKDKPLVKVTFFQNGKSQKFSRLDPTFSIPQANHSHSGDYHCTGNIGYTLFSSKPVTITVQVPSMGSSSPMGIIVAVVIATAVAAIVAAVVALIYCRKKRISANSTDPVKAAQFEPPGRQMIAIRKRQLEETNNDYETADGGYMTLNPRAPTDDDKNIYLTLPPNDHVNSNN

T3: hFcgRIIB (human, UniProt P31994)
T3 construct: on the cell surface of CHO transfectants, FLAG tagged; Named only on the sheet; one member of the group m10; also called hFcγRIIB; CD32B
T3 sequence (receptor chain, looked up): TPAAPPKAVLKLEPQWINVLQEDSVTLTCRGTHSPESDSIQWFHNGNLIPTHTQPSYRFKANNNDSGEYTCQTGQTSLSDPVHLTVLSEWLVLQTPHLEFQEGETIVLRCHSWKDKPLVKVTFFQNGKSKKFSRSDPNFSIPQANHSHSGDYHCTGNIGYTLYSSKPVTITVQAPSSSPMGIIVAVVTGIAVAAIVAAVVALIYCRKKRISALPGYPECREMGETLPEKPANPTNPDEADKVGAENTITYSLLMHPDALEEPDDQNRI


Columns and labels:
[1] = molecular target: T4, His-tagged ectodomains of hFcγRIIIA variant V158 (human, UniProt P08637 19-208); assay: SPR (ProteON), His-tagged hFcγRIIIA V158 ectodomains on chip, mAb injected
T4 construct: also called human CD16A V158 ectodomains; hFcγRIIIA (V158 variant); not shown: His tag
T4 sequence (P08637 other isoform, or with tags, fused parts or gaps mutant): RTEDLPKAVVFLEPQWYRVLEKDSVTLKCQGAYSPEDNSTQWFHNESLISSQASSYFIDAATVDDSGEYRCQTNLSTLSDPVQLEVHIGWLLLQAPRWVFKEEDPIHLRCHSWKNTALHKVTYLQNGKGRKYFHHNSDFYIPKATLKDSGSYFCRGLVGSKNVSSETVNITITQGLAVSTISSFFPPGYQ
Method: Surface Plasmon Resonance analysis. His-tagged ectodomains of hFcγRIIIA variant V158 were covalently immobilized on a His-tag capture sensor chip for a ProteON instrument (BioRad). A range of dilutions of anti-hFcγRIII mAbs were injected onto the chip. Background binding was measured on an empty HTE sensor chip channel and subtracted from the binding values observed on coated channels. The resulting sensorgrams were fitted using a “1:1 binding with mass transfer” model, and association (Kₒₙ), dissociation (Koff) constants and KD were calculated as the […] using BIAevaluation 4.1 software.
The affinity of the antibodies of the invention for the hFcγRIIIA (V158 variant) has been assessed by SPR as detailed above.

[2] = molecular target: T1, hFcgRIIA H131; assay: FACS on CHO cells expressing FLAG tagged hFcγRIIA H131; mAb at 1 µg/ml, PE-labelled F(ab')2 donkey anti-human IgG at 5 µg/ml
Method: (§1) Specificity. A collection of Chinese Hamster Ovarian (CHO) cells expressing FLAG tagged human FcγR (Bruhns P. et al, 2009) was used to analyze the specificity of the antibody against the hFcγR family. Cells were incubated on ice for 30 min with mAbs at 1 μg/ml, washed 3 time in PBS containing 0.5% BSA and 2 mM EDTA (MACS buffer) and then incubated on ice for 30 min with 5 μg/ml PE-labelled F(ab′)₂ Donkey Anti-Human IgG (Jackson ImmunoResearch). Data acquisition was performed on a MACSQuant flow cytometer (Miltenyi Biotec), and data analyzed using the Flowjo Software (FlowJo).
(§2) The specificity of the chimeric modified antibody 3G4NA towards the members of the hFcγR family has been assessed as exposed in the Material & Methods part, in CHO cells expressing FLAG tagged human FcγR. The cells were incubated with 3G4NA mAbs at 1 μg/ml, washed and then incubated on ice for 30 min with 5 μg/ml PE-labelled F(ab′)₂ Donkey Anti-Human IgG. The FACS results are disclosed on FIG. 1.

[3] = molecular target: T5, hFcgRIIIA F176 (human, UniProt P08637); assay: FACS on CHO cells expressing FLAG tagged hFcγRIIIA F176; mAb at 1 µg/ml, PE-labelled F(ab')2 donkey anti-human IgG at 5 µg/ml
T5 construct: on the cell surface of CHO transfectants, FLAG tagged; also called hFcγRIIIA F158; CD16A F158
T5 sequence (P08637 17-254 limits assumed): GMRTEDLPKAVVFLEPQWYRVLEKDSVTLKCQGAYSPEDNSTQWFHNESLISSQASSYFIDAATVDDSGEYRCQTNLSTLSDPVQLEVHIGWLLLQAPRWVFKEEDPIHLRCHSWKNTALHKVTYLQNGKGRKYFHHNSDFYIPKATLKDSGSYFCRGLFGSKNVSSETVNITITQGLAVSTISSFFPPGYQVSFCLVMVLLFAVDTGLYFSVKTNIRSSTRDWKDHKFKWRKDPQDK
Method: as §1, §2

[4] = molecular target: T2, hFcgRIIA R131; assay: FACS on CHO cells expressing FLAG tagged hFcγRIIA R131; mAb at 1 µg/ml, PE-labelled F(ab')2 donkey anti-human IgG at 5 µg/ml
Method: as §1, §2

[5] = molecular target: T6, hFcγRIIIA V158 (FLAG tagged, expressed on CHO cells) (human, UniProt P08637 17-254); assay: FACS on CHO cells expressing FLAG tagged hFcγRIIIA V176 (V158 in the text); mAb at 1 µg/ml, PE-labelled F(ab')2 donkey anti-human IgG at 5 µg/ml
T6 construct: whole, on cells; also called CD16A V158
T6 sequence (P08637 17-254 F176V limits assumed): as the sequence (P08637 17-254 limits assumed) above, with F160V counted along it
Method: as §1, §2

[6] = molecular target: T7, hFcγRI (FLAG tagged, expressed on CHO cells) (human, UniProt P12314 16-374); assay: FACS on CHO cells expressing FLAG tagged hFcγRI; mAb at 1 µg/ml, PE-labelled F(ab')2 donkey anti-human IgG at 5 µg/ml
T7 construct: whole, on cells; also called CD64
T7 sequence (P12314 16-374): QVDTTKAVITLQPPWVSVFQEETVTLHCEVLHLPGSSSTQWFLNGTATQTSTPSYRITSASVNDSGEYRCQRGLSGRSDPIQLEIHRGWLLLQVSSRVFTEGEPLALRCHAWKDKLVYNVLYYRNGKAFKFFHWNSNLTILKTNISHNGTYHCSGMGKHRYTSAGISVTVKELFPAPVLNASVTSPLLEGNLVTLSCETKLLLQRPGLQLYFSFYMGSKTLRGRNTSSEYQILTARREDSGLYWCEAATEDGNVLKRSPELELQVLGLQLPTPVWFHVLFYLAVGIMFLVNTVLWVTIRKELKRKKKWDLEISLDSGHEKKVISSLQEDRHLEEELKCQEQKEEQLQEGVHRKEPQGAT
Method: as §1, §2

[7] = molecular target: T3, hFcgRIIB; assay: FACS on CHO cells expressing FLAG tagged hFcγRIIB; mAb at 1 µg/ml, PE-labelled F(ab')2 donkey anti-human IgG at 5 µg/ml
Method: as §1, §2

Row | Binder | Kd [1] | koff [1] | kon [1] | binding result [2] | binding result [3] | binding result [4] | binding result [5] | binding result [6] | binding result [7]
1 | Chimeric 3G4 hIgG1 (chimeric mouse-human IgG1 kappa anti-hFcγRIII mAb, clone 3G4) (antibody, also called mouse-human 3G4; 3G4 mouse-human chimeric monoclonal antibody) heavy: not shown light: DIVLTQSPSSISASLGDRITITCQATQDIIKNLNWYQQKPGKPPSFLIYYATEVAEGVPSRFSGSGSGSDYSLTISNLESEDFADYYCLQFYEFPYTFGGGTKLEIKRTVAAPSVFIFPPSDEQLKSGTASVVCLLNNFYPREAKVQWKVDNALQSGNSQESVTEQDSKDSTYSLSSTLTLSKADYEKHKVYACEVTHQGLSSPVTKSFNRGEC | 7.9 nM | 0.001 s⁻¹ | 130000 M⁻¹ s⁻¹ | – | – | – | – | – | –
2 | Chimeric 3G4 hIgG1 N297A format (chimeric modified mouse-human antibody 3G4NA) (antibody, also called 3G4N297A; mAb 3G4 N297A) heavy: not shown light: DIVLTQSPSSISASLGDRITITCQATQDIIKNLNWYQQKPGKPPSFLIYYATEVAEGVPSRFSGSGSGSDYSLTISNLESEDFADYYCLQFYEFPYTFGGGTKLEIKRTVAAPSVFIFPPSDEQLKSGTASVVCLLNNFYPREAKVQWKVDNALQSGNSQESVTEQDSKDSTYSLSSTLTLSKADYEKHKVYACEVTHQGLSSPVTKSFNRGEC | 16 nM | 0.00034 s⁻¹ | 19000 M⁻¹ s⁻¹ | no binding (tested: 1 µg/ml) | binds | no binding (tested: 1 µg/ml) | binds | binds | no binding (tested: 1 µg/ml)
